T1: OC-1 peptide (human)
T1 construct: Conjugated to BSA as the coating antigen in the screening ELISA; also called C-terminal 12 amino acid partial peptide of human osteocalcin
T1 peptide: FQEAYRRFYGPV


Key:
[1] = molecular target: human osteocalcin (human) (UniProt P02818); test: ELISA: 0.5 ug/mL KTM-219 on plate coated with 2 ug/mL human osteocalcin, peroxidase anti-mouse IgG detection (zero-competitor point of the competition ELISA)
OC-1 peptide [2] = molecular target: T1, OC-1 peptide; test: competitive inhibition ELISA on OC peptide-BSA with free OC peptide (hybridoma screening)
OC-1 peptide [3] = molecular target: T1, OC-1 peptide; test: open sandwich ELISA: MBP-VL adsorbed on plate, VH-AP in solution, p-nitrophenyl phosphate, OD405

absorbance (450 nm) without OC-1 peptide [1] | binding result (OC-1 peptide [2]) | binding result (OC-1 peptide [3]) | Binder
2.28 absorbance | binds | – | mouse monoclonal antibody KTM-219 (antibody, IgG1, V domains shown, Biotin-labelled when used as the detection antibody in the sandwich ELISA; also called anti-OC-1 peptide monoclonal antibody) VH: EVQLEESGAEFVKAGASVKLSCKTSGYTFNNYWIHWVKQSPGQGLEWIGEIDPSDGYSNYNQKFKGKATLTVDKSSSTAYMHLNSLTSEDSAVYYCTSSTSVGGSWGQGTTVTVSS VL: DIELTQSPLSLPVSLGDQASISCTSSQSLLHSNGDTYLHWYLQKPGQSPKLLIYTLSNRFSGVPDRFSGSGSGTDFTLKISRVEAADLGIYFCSQTTHVPYTFGGGTKLEIKR
– | – | binds | KTM-219 VH-AP fusion protein together with MBP-VL fusion protein (open sandwich pair) (other, Two separate purified periplasmic proteins; MBP-VL (about 56.5 kDa) is adsorbed on the plate and VH-AP (about 61.9 kDa) is added in solution; also called VH-alkaline phosphatase fusion protein; pET-VH219-AP product; not shown: E. coli alkaline phosphatase (1450 bp fragment of pPhoA); His tag; His-Myc tag) VH: EVQLEESGAEFVKAGASVKLSCKTSGYTFNNYWIHWVKQSPGQGLEWIGEIDPSDGYSNYNQKFKGKATLTVDKSSSTAYMHLNSLTSEDSAVYYCTSSTSVGGSWGQGTTVTVSS VL: DIELTQSPLSLPVSLGDQASISCTSSQSLLHSNGDTYLHWYLQKPGQSPKLLIYTLSNRFSGVPDRFSGSGSGTDFTLKISRVEAADLGIYFCSQTTHVPYTFGGGTKLEIKR

Reference: WO2006033413A1 (dated 2006)
